The data set concerns the molecule itself. Put plainly: negative-stain EM of the precipitate formed after tag cleavage; self-assembly into capsid-like structures. From the text: Given that dArc Iresembles a Gag protein, and that retroviral Gag proteins have the ability to auto-assemble into capsids, the precipitate was examined at the EM level by negative staining. The presence of round structures of about 39.3±5.2 nm was seen, which resembled HIV capsids. FIGS. 8A and 8B.

B1: purified dArc1 protein, bacterially produced, after cleavage of the HIS-MBP tag (other, Drosophila, UniProt Q7K1U0 1-254, looked up)
chain: MAQLTQMTNEQLRELIEAVRAAAVGAAGSAAAAGGADASRGKGNFSACTHSFGGTRDHDVVEEFIGNIETYKDVEGISDENALKGISLLFYGMASTWWQGVRKEATTWKEAIALIREHFSPTKPAYQIYMEFFQNKQDDHDPIDTFVIQKRALLAQLPSGRHDEETELDLLFGLLNIKYRKHISRHSVHTFKDLLEQGRIIEHNNQEDEEQLATAKNTRGSKRTTRCTYCSFRGHTFDNCRKRQKDRQEEQHEE
notes: Self-assembles into capsid-like structures of about 39.3±5.2 nm; also called His-MBP-dArc1 (before cleavage)
On to B1, for which the binding result is “binds”.
